These are literature values, as cited in publication PMC9917443.

As a reminder, the Kd is the concentration at which binding is half-saturated.

Where two headings read alike, the source gives them in different places.

Data set [1] addresses GB1a SD1 (UniProt Q9UBS5).
Data set [2] deals with GB1a SD1 (UniProt Q9UBS5). The source holds these as a separate data set.
The target of data set [3] is GB1a SD1 (UniProt Q9UBS5). The source holds these as a separate data set.

Sequence of GB1a SD1 (Q9UBS5 30-96): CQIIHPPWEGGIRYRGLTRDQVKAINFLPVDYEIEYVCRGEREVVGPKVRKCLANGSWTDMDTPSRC
Sequence of APP (P05067 18-770): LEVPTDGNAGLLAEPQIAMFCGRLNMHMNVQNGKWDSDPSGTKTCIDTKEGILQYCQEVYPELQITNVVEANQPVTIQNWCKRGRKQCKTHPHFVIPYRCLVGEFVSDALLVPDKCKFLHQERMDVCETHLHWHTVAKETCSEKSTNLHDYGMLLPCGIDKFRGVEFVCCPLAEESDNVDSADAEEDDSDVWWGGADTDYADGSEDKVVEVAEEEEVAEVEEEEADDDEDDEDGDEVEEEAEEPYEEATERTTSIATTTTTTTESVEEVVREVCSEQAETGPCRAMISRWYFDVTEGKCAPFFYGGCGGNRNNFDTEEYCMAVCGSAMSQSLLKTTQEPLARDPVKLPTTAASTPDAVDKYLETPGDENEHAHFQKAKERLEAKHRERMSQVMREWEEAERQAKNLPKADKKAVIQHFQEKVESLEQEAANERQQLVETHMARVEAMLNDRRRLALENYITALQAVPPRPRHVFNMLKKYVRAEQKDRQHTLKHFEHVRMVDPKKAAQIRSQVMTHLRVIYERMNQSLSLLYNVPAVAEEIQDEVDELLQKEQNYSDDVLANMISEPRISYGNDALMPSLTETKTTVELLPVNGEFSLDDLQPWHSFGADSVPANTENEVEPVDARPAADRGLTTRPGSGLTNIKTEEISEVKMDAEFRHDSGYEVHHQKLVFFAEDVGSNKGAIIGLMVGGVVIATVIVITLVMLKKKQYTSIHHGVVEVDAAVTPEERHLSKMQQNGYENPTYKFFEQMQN
Sequence of sAPP (P05067 18-687): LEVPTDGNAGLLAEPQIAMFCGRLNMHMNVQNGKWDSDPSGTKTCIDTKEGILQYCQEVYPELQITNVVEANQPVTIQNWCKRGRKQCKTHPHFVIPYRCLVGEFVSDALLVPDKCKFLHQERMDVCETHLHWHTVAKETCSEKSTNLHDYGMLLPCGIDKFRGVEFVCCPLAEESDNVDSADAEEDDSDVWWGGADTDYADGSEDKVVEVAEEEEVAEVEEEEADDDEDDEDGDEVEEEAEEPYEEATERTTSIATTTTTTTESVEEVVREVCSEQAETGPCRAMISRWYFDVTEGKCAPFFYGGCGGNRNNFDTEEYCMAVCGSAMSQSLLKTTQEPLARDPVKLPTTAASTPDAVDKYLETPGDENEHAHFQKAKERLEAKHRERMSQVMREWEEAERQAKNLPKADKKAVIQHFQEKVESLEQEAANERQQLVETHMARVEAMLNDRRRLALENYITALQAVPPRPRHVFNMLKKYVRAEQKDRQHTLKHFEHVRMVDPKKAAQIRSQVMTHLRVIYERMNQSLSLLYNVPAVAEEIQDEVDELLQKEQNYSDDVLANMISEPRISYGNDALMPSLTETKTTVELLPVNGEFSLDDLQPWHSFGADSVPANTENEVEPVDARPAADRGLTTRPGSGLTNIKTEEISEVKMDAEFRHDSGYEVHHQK

For the substance sAPP (from UniProt P05067), the Kd in the data set with GB1a SD1 [1] is 0.431 µM. Consider APP (from UniProt P05067), for which the Kd in the data set with GB1a SD1 [2] is 0.183 µM. “APP17 APP17 peptide (from UniProt P05067)”: the Kd in the data set with GB1a SD1 [3] was 0.81 µM.
